Experimental findings from patent publication US20100292083A1 (Ablynx, published 2010) are described below.

The target in assay [1] is T1, human IL6R (human, UniProt P08887 20-358, limits assumed).
T1 construct: Antigen of the Biacore experiments
T1 sequence (looked up): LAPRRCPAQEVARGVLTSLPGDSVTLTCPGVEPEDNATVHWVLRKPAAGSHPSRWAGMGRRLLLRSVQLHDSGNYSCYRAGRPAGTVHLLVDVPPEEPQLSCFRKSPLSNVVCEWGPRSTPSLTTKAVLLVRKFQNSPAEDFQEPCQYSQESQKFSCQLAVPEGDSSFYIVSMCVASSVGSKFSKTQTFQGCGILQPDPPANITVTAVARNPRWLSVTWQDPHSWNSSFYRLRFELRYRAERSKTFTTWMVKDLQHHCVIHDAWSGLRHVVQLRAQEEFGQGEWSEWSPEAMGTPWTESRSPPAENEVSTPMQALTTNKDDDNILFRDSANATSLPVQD
The assay can be described thus: SPR (Biacore), periplasmic extract. The protocol: The oligos were dissolved in H₂O and subsequently pooled at a final concentration of 0.4 uM for each oligo. 5 and 1 ul of this mixture was used for assembly PCR in a 50 ul reaction volume. Full-length product was purified using the Qiagen PCR purification kit. The purified PCR product was then digested with SfiI and BsteEII and ligated into the corresponding sites of expression vector pAX51. E. coli TG1 cells were transformed with 2 ul of ligation mixture and plated on LB agar+100 ug/ml ampicillin+2% glucose. Plates were incubated overnight at 37° C. Individual colonies were picked and grown overnight in 2×YT+100 ug/ml ampicillin+2% glucose. Cloned Nanobody genes were amplified directly from these cultures with M13 forward and reverse primers. PCR products were purified and subsequently sequenced. In parallel the same panel of Nanobodies was expressed at 1 ml scale for 4 hours at 37° C. Periplasmic extracts were prepared and without further purification analyzed on Biacore for their ability to bind human IL6R.
A general note: In SPR one partner is held on a chip, and binding of the other changes the refractive index at the surface.

Assay [2] deals with T2, IL6R on the cell-surface of TF-1 cells (UniProt P08887 20-468, limits assumed).
T2 sequence (looked up): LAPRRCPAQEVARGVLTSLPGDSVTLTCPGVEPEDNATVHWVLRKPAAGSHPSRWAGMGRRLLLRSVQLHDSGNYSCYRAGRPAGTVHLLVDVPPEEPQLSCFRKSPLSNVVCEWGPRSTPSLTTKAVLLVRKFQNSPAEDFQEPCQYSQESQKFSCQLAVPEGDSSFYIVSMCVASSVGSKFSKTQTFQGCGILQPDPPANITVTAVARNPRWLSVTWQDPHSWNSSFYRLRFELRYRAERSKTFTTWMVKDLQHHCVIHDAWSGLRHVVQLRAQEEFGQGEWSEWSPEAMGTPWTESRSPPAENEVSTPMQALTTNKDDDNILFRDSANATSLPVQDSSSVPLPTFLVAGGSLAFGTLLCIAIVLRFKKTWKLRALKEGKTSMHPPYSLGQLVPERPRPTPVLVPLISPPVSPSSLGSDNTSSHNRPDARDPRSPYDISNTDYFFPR
The assay can be described thus: cell-based or functional assay.

For assay [3], the target named is T1, human IL6R. The assay can be described thus: SPR (Biacore), purified Nanobody. As to the method: Binding curves at different concentrations of purified Nanobody were recorded on Biacore and used to calculate values for ka, kd and Kd (Table B-4).
The target of assay [4] is soluble IL6R in cynomolgus monkey plasma (cynomolgus monkey, UniProt A0A2K5WN54 60-396). The assay can be described thus: cyno plasma potency assay: competition ELISA, inhibition of human IL6 binding to soluble IL6R.
soluble IL6R in cynomolgus monkey plasma, sequence (A0A2K5WN54 entry or part of it): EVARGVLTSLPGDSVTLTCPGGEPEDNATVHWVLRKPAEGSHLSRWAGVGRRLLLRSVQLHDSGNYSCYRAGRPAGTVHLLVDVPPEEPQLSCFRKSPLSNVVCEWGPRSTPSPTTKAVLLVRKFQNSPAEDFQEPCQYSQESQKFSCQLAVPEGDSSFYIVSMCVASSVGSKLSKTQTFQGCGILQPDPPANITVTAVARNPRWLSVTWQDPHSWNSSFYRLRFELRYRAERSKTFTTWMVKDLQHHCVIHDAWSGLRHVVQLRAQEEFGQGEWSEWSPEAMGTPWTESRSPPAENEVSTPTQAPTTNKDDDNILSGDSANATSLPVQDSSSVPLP
Assay [5] concerns the target T3, soluble IL6R in human plasma (human, UniProt P08887 20-355, limits assumed).
T3 sequence (looked up): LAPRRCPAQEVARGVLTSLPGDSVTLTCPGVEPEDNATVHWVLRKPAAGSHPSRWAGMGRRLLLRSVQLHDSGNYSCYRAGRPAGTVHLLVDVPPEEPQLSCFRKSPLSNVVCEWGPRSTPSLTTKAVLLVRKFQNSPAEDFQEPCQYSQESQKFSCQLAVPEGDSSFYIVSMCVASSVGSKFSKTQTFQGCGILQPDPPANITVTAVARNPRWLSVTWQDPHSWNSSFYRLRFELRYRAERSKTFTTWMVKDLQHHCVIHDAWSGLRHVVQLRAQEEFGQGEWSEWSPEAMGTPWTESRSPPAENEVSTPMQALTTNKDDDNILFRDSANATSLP
The assay can be described thus: human plasma potency assay: competition ELISA, inhibition of human IL6 binding to soluble IL6R. As to the method: All 5 Nanobodies and the parent Nanobody were also tested in a plasma potency assay. In this assay different concentrations of Nanobody are mixed with soluble IL6R containing plasma from either human or cynomolgus monkey and a fixed concentration of human IL6. After 1 hour of incubation the mixture is transferred to a Maxisorp plate coated with the anti-IL6R MAb BN-12 (Diaclone). The amount of IL6 bound was determined by subsequent addition of biotinylated anti-IL6 polyclonal antibody (R&D Systems) and streptavidin-HRP. TMB was used as substrate. Substrate conversion was measured at 450 nm.

Assay [6] concerns the target T1, human IL6R. The assay can be described thus: SPR (Biacore), periplasmic extract. The protocol:
Selection outputs were analyzed by picking individual colonies and growing them overnight in 1 ml 2×YT (Yeast Tryptone) medium+100 ug/ml Carbenicillin at 37 C. Nanobody containing periplasmic extracts were prepared, diluted 1/10 in PBS and subsequently tested for antigen binding in ELISA. Clones with the highest ELISA signals were sequenced and analyzed on Biacore. […] The off-rate of the best clone from the CDR3 library was 7×10e-4 s-1.
The source holds these as a separate data set.

B1: 32C9PMP2_G12 (VHH, name in Kabat numbering)
VHH: EVQLVESGGGLVQAGGSLRLSCAASGFTFSDYDIGWFRQAPGKGREGVSGISSSDGNTYYADSVKGRFTISRDNAKNTLYLQMNSLKAEDTAVYYCAAEPPDSSWYLDGSPEFFKYWGQGTQVTVSS
notes: Humanized 32C9 variant
On to B1, for which the dissociation rate constant (koff) (in general, the rate constant with which the complex falls apart) with human IL6R [1] turned out to be 0.000197 s⁻¹.

B2: Nanobody 32C9 (VHH)
VHH: EVQLVESGGGLVQAGGSLRLSCAASGFTFDDYDIGWFRQAPGKEREGVSGISSSDGNTYYADSVKGRFTISSDNAKNTVYLQMNSLKPEDTAVYYCAAEPPDSSWYLDGSPEFFKYWGQGTQVTVSS
notes: Tested as periplasmic extract; also called 32C9 WT; IL6R04
B2 showed a dissociation rate constant (koff) in the assay with human IL6R [1] of 0.000162 s⁻¹.

B3: P32C9PMP2_E12 (VHH, name in Kabat numbering)
VHH: EVQLVESGGGLVQAGGSLRLSCAASGFTFDDYDIGWFRQAPGKGREGVSGISSSDGNTYYADSVKGRFTISRDNAKNTVYLQMNSLRPEDTAVYYCAAEPPDSSWYLDGSPEFFKYWGQGTLVTVSS
notes: Humanized 32C9 variant
Consider B3, for which the koff with human IL6R [1] was found to be 0.000247 s⁻¹.

B4: Nanobody IL6R65 (VHH)
VHH: EVQLVESGGGLVQPGGSLRLSCAASGSIFKVNAMGWYRQAPGKGRELVAGIISGGSTNYADSVKGRFTISRDNAKNTLYLQMNSLRPEDTAVYYCAFVTTNSDYDLGRDYWGQGTLVTVSS
notes: also called ILR65
For B4, the “Inhibition of IL6-dependent proliferation of TF-1 cells (3H-thymidine incorporation), IC50” value (“Inhibition” for short) in assay [2] was 55 nM. In addition, in the assay with human IL6R [3], the Kd (usually the free concentration of one partner at which half of the binding sites on the other are occupied at equilibrium, for simple one-to-one binding) came to 4.3 nM; the koff is 0.00234 s⁻¹; the kon (as a rule, a measure of how fast the partners come together) was found to be 539000 M⁻¹ s⁻¹. Besides, the half-maximal inhibitory concentration (IC50) (usually the concentration needed to halve the response being measured) in assay [4] turned out to be 2.99 nM. In addition, the IC50 in assay [5] was 4.93 nM.

B5: IL6R65PMP7G8 (VHH)
VHH: EVQLVESGGGLVQPGGSLRLSCAASGSTFRINVMAWYRQAPGKGRELVAGVINDGSTTYADSVKGRFTISRDNAKNTLYLQMNSLRPEDTAVYYCAFVTTNSDYDLGRDYWGQGTLVTVSS
notes: Also expressed in E. coli and purified via IMAC
In the case of B5, the “Inhibition” value in assay [2] came to 6.2 nM. In the assay with human IL6R [3], the Kd came to 0.95 nM, the koff amounted to 0.000333 s⁻¹ and the on-rate constant (kon) is 352000 M⁻¹ s⁻¹. The IC50 in assay [4] stood at 0.14 nM. This molecule also registered a koff in the assay with human IL6R [6] of 0.00041 s⁻¹. In assay [5], the IC50 worked out at 0.34 nM.

B6: IL6R65PMP7D6 (VHH)
VHH: EVQLVESGGGLVQPGGSLRLSCAASGSIFRVNVMAWYRQAPGKGRELVAAVINGGTTTYADSVKGRFTISRDNAKNTLYLQMNSLRPEDTAVYYCAFVTTNSDYDLGRDYWGQGTLVTVSS
notes: as for B5
As for B6, the “Inhibition” value in assay [2] turned out to be 3.7 nM. In the assay with human IL6R [3], binding was put at a Kd of 0.42 nM, the koff was found to be 0.000279 s⁻¹ and the kon stood at 672000 M⁻¹ s⁻¹. The IC50 in assay [4] came out at 0.09 nM. Moreover, the koff in the assay with human IL6R [6] turned out to be 0.00044 s⁻¹. Moreover, the IC50 in assay [5] turned out to be 0.19 nM.

B7: IL6R65PMP7F4 (VHH)
VHH: EVQLVESGGGLVQPGGSLRLSCAASGTTFKVNVMAWYRQAPGKGRELVAGIINGGSTTYADSVKGRFTISRDNAKNTLYLQMNSLRPEDTAVYYCAFVTTNSDYDLGRDYWGQGTLVTVSS
notes: as for B5
With B7, in assay [2], the “Inhibition” value came to 5.2 nM. This molecule also registered a Kd in the assay with human IL6R [3] of 0.48 nM. Also, the koff with human IL6R [3] came to 0.000292 s⁻¹; with human IL6R [6], 0.00026 s⁻¹. The kon in the assay with human IL6R [3] came to 609000 M⁻¹ s⁻¹. The results for the IC50 in assay [4] and in assay [5] were 0.09 nM and 0.24 nM, respectively.

B8: IL6R65PMP7C4 (VHH)
VHH: EVQLVESGGGLVQPGGSLRLSCAASGTTFRINVMAWYRQAPGKGRELVAGIITNGSTSYADSVKGRFTISRDNAKNTLYLQMNSLRPEDTAVYYCAFVTTNSDYDLGRDYWGQGTLVTVSS
notes: as for B5
For B8, in assay [2], the “Inhibition” value was 2.5 nM. For the same molecule, in the assay with human IL6R [3], binding was put at a Kd of 0.34 nM, the “fold improvement of Kd relative to the parent molecule (IL6R65)” value was 13 fold, the koff stood at 0.000177 s⁻¹ and the kon came to 527000 M⁻¹ s⁻¹. Further, the IC50 in assay [4] amounted to 0.08 nM. Moreover, the koff with human IL6R [6] worked out at 0.00043 s⁻¹. Besides, the IC50 in assay [5] came out at 0.21 nM.

B9: IL6R65PMP7G7 (VHH)
VHH: EVQLVESGGGLVQPGGSLRLSCAASGTTFKINIMAWYRQAPGKGRELVAGVITGGNTTYADSVKGRFTISRDNAKNTLYLQMNSLRPEDTAVYYCAFVTTNSDYDLGRDYWGQGTLVTVSS
notes: as for B5
Turning to B9, in assay [2], the “Inhibition” value was 3.5 nM. The molecule also returned a Kd with human IL6R [3] of 0.56 nM. The koff with human IL6R [3] turned out to be 0.00031 s⁻¹; with human IL6R [6], 0.00037 s⁻¹. Also, in the assay with human IL6R [3], the kon turned out to be 550000 M⁻¹ s⁻¹. Besides, the results for the 50% inhibitory concentration (IC50) in assay [4] and in assay [5] were 0.11 nM and 0.22 nM, respectively.
